B1: Protein SGT1 (Saccharomyces cerevisiae), Q08446 (parent)
chain: MPVEKDLKTAYKALYDEKEPLKALHLYDEILKGSPTNLTALIFKAACLEKLYFGFSDWHSDATMENAKELLDKALMTAEGRGDRSKIGLVNFRYFVHFFNIKDYELAQSYFKKAKNLGYVDDTLPLWEDRLETKLNKKNKKQKDSTNKHTIKPVESIENRGDNNSSHSPISPLKIETAPQESPKFKIDWYQSSTSVTISLFTVNLPESKEQVNIYISPNDRRTLSISYQVPKSGSEFQYNAKLSHEVDPKAVSLKIFPKKLEITLSKIDSTQWKKLEEDILTESSRLSDEGKNSDSATRLLSAETASKERLSYPSSSKKKIDWSKLDIDEEADEEAGSADSFFQKLYAGADPDTKRAMMKSFIESNGTALSTDWEDVSKGTVKTSPPEGMEPKHW

Variants of: B1
Conditions: with skp1_yeast SKP1, P52286
Sequence of skp1_yeast SKP1, P52286 (P52286 whole entry): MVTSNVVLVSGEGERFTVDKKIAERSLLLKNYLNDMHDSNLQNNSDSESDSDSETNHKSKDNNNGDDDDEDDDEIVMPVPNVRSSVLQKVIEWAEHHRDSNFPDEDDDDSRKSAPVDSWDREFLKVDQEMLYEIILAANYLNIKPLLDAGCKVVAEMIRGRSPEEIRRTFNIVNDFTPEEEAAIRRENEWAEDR

Row | effect of a mutation on the interaction | Variant
1 | decreasing interaction | MPVEKDLKTAYKALYDEKEPLKALHLYDEILKGSPTNLTALIFKAACLEKLYFGFSDWHSDATMENAKELLDKALMTAEGRGDRSKIGLVNFRYFVHFFNIKDYELAQSYFKKAKNLGYVDDTLPLWEDRLETKLNKKNKKQKDSSNKHTIKPVESIENRGDNNSSHSPISPLKIETAPQESPKFKIDWYQSSTSVTISLFTVNLPESKEQVNIYISPNDRRTLSISYQVPKSGSEFQYNAKLSHEVDPKAVSLKIFPKKLEITLSKIDSTQWKKLEEDILTESSRLSDEGKNSDSATRLLSAETASKERLSYPSSSKKKIDWSKLDIDEEADEEAGSADSFFQKLYAGADPDTKRAMMKSFIESNGTALSTDWEDVSKGTVKTSPPEGMEPKHW [T146S]
